From US8097440B1, “Engineered microorganisms capable of producing target compounds under anaerobic conditions” (Gevo, Inc., priority 2008, dated 2012) come the findings set out here.

Holding throughout (assay type): biochemical, E. coli
Substrate in data set [1]: NC(=O)C1=CN([C@@H]2O[C@H](COP(=O)(O)OP(=O)(O)OC[C@H]3O[C@@H](n4cnc5c(N)ncnc54)[C@H](OP(=O)(O)O)[C@@H]3O)[C@@H](O)[C@H]2O)C=CC1
The experiment in a line: KARI cuvette assay, purified Ec_IlvC^S78D-his6. The following applies: other: purified. The method, then:
(§1) KARI cuvette assay: KARI activity was assayed kinetically by monitoring the decrease in NAD(P)H concentration by measuring the absorbance at 340 nm. A reaction buffer was prepared containing 250 mM potassium phosphate pH 7, 1 mM DTT and 10 mM MgCl2. Cell pellets were resuspended (0.25 g wet weight/mL buffer) in 250 mM potassium phosphate (KPi) buffer containing 1 mM DTT and 10 mM MgCl2. The resuspended cells were lysed by sonication for 1 min with a 50% duty cycle and pelleted at 11000×g and 4° C. for 15 min. A reaction mixture consisting of 910 μl reaction buffer, 50 μl acetolactate, and 20 μl lysate was prepared in a cuvette. The reaction was initiated by addition of 20 μL of 10 mM NAD(P)H. A substrate free control was conducted using reaction buffer without the addition of acetolactate.
(§2) Purification of KARI: Cell pellets used for purification were resuspended in purification buffer A (20 mM Tris, 20 mM imidazol, 100 mM NaCl, 10 mM MgCl2, pH 7.4). KARI was purified by IMAC (Immobilized metal affinity chromatography) over a 1 ml Histrap High Performance (histrap HP) column pre-charged with Nickel (GE Healthcare) using an Akta FPLC system (GE Healthcare). The column was equilibrated with four column volumes (cv) of buffer A. After injecting the crude extract, the column was washed with buffer A for 2 cv, followed by a wash step with a mixture of 10% elution buffer B (20 mM Tris, 300 mM imidazol, 100 mM NaCl, 10 mM MgCl2, pH 7.4) for 5 cv. KARI variants were eluted at 40% buffer B and stored at 4° C.
(§3) Five individual site saturation libraries were generated and electro-competent E. coli BL21(DE3) cells were transformed with the desalted ligation mixtures. 88 clones of each library were screened for NAD(P)H depletion at 340 nm in microplates. Clones with an improved NADH/NADPH consumption ratio while maintaining or increasing their NADH activity were chosen for a rescreen. Variants that passed the rescreen were sequenced, expressed in shake flasks, purified, and characterized. […]

Substrate in data set [2]: NC(=O)C1=CN([C@@H]2O[C@H](COP(=O)(O)OP(=O)(O)OC[C@H]3O[C@@H](n4cnc5c(N)ncnc54)[C@H](O)[C@@H]3O)[C@@H](O)[C@H]2O)C=CC1
The experiment in a line: KARI cuvette assay, purified Ec_IlvC^S78D-his6. How it is done: as §1, §2, §3

Substrate in data set [3]: CC(C)C=O
The experiment in a line: Alcohol dehydrogenase kinetic assay, Ec_YqhD. The following applies: other: NADPH as cofactor; conversion to isobutanol. The method, then:
E. coli strain GEVO1745 was transformed by electroporation with one of plasmids pGV1705-A, pGV1748-A, pGV1749-A, or pGV1778-A. 50 mL of TB medium (23.1 g/L KH2PO4, 125.4 g/L K2HPO4, 12 g/L Bacto-tryptone, 24 g/L yeast extract, 4 ml/L glycerol) were inoculated to an initial OD600 of 0.2 using a 3 mL overnight LB culture of a single colony. The 50 mL culture was allowed to grow for 3-4 hrs at 250 rpm and 37° C. Protein expression was induced at an OD600 of 2-2.5 by the addition of IPTG to a final concentration of 1 mM. After the addition of IPTG, protein expression was allowed to continue for 20-24 hours at 225 rpm and 25° C.
Alcohol dehydrogenase (ADH) activity was assayed kinetically by monitoring the decrease in NAD(P)H concentration by measuring the absorbance at 340 nm. A reaction buffer was prepared containing 0.1 M potassium phosphate, 0.4 mM NAD(P)H, 10 mM isobutyraldehyde, 1 mM DTT, and 1 mM PMSF. Cell pellets were resuspended in 0.1 M potassium phosphate buffer containing 1 mM DTT and 1 mM PMSF at one fifth of the culture volume, i.e. 10 mL resuspension buffer for cell pellet from a 50 mL culture. The resuspended cells were lysed by sonication for 1 min with a 50% duty cycle. The reaction was initiated by the addition of 0.5 mL of the reaction buffer to 0.5 mL of clarified lysate in a cuvette. […]

B1: E. coli KARI Ec_IlvC variant Ec_IlvC^S78D-his6 (S78D), SEQ ID NO: 17 (Escherichia coli K-12; S78D) (protein)
chain: MANYFNTLNLRQQLAQLGKCRFMGRDEFADGASYLQGKKVVIVGCGAQGLNQGLNMRDSGLDISYALRKEAIAEKRADWRKATENGFKVGTYEELIPQADLVINLTPDKQHSDVVRTVQPLMKDGAALGYSHGFNIVEVGEQIRKDITVVMVAPKCPGTEVREEYKRGFGVPTLIAVHPENDPKGEGMAIAKAWAAATGGHRAGVLESSFVAEVKSDLMGEQTILCGMLQAGSLLCFDKLVEEGTDPAYAEKLIQFGWETITEALKQGGITLMMDRLSNPAKLRAYALSEQLKEIMAPLFQKHMDDIISGEFSSGMMADWANDDKKLLTWREETGKTAFETAPQYEGKIGEQEYFDKGVLMIAMVKAGVELAFETMVDSGIIEESAYYESLHELPLIANTIARKRLYEMNVVISDTAEYGNYLFSYACVPLLKPFMAELQPGDLGKAIPEGAVDNGQLRDVNEAIRSHAIEQVGKKLRGYMTDMKRIAVAGLEHHHHHH
In general, Km refers to the substrate concentration at which the rate is half of its maximum. By kcat/Km is commonly meant the second-order rate constant that governs catalysis at low substrate concentration. B1: the Km in data set [1] was 130 µM. In addition, the kcat/Km is 27,600 M^−1 * s^−1 in data set [2] (other: purified, acetolactate as substrate) and 3770 M⁻¹ s⁻¹ in data set [2] (with NADH).

B2: E. coli alcohol dehydrogenase Ec_YqhD, SEQ ID NO: 69 (Escherichia coli K-12) (protein)
chain: MNNFNLHTPTRILFGKGAIAGLREQIPHDARVLITYGGGSVKKTGVLDQVLDALKGMDVLEFGGIEPNPAYETLMNAVKLVREQKVTFLLAVGGGSVLDGTKFIAAAANYPENIDPWHILQTGGKEIKSAIPMGCVLTLPATGSESNAGAVISRKTTGDKQAFHSAHVQPVFAVLDPVYTYTLPPRQVANGVVDAFVHTVEQYVTKPVDAKIQDRFAEGILLTLIEDGPKALKEPENYDVRANVMWAATQALNGLIGAGVPQDWATHMLGHELTAMHGLDHAQTLAIVLPALWNEKRDTKRAKLLQYAERVWNITEGSDDERIDAAIAATRNFFEQLGVPTHLSDYGLDGSSIPALLKKLEEHGMTQLGENHDITLDVSRRIYEAAR
Take B2: the Km in data set [3] is 250 µM.
